Data published in article PMC7618002.
Blank lines part the entries; values can stand above or below the substance they belong to.

Assays:
Test in all cases: SEC; analytical SEC of the purified protein alone; oligomeric state in solution
LnmF = molecular target: LnmF
[1] = molecular target: WsmD (Streptomyces sp. CB02120-2)
[2] = molecular target: WsmE (Streptomyces sp. CB02120-2)
[3] = molecular target: WsmR KS6 (Streptomyces sp. CB02120-2)
[4] = molecular target: WsmS (Streptomyces sp. CB02120-2)

Substance: WsmD (enzyme)
stoichiometry N [1]: 2

Substance: WsmE (enzyme)
stoichiometry N [2]: 3

Substance: WsmR KS6 (domain or fragment)
stoichiometry N [3]: 2

The remaining lines, values ahead:

stoichiometry N (LnmF): 3
Substance: LnmF (enzyme)

stoichiometry N [4]: 2
Substance: WsmS (enzyme)
